From paper PMC5709467, “Solution structure and interaction with copper in vitro and in living cells of the first BIR domain of XIAP” (Scientific Reports, 2017)

B1: Wild-type BIR1 (1-105 aa), first BIR domain of XIAP (domain or fragment, human, UniProt P98170 1-105, looked up)
chain: MTFNSFEGSKTCVPADINKEEEFVEEFNRLKTFANFPSGSPVSASTLARAGFLYTGEGDTVRCFSCHAAVDRWQYGDSAVGRHRKVSPNCRFINGFYLENSATQS
notes: 15N- or 15N,13C-labelled for NMR; cloned into pET-3a; In the oxidised state C12 of the two subunits form a disulfide bond; also called WT BIR1

Key:
[1] = molecular target: D71N/R72E mutant of BIR1 (1-105) of XIAP (human) (UniProt P98170); test: SEC; oxidised protein (C12 disulfide), analytical gel filtration on Superdex 75 10/200 GL, 20 mM Bis-Tris pH 6.5
[2] = molecular target: D71N/R72E mutant of BIR1 (1-105) of XIAP (human) (UniProt P98170); test: MALDI-TOF mass spectrometry; oxidised D71N/R72E BIR1; covalent (disulfide-linked) dimer; compared with a sample treated with DTT
[3] = molecular target: the molecule itself; test: NMR 15N relaxation (R2/R1, rotational correlation time); reduced protein, about 0.3 mM, 20 mM Bis-Tris pH 6.5, 298 K

Molecule | stoichiometry N [1] | stoichiometry N [2] | stoichiometry N [3]
D71N/R72E mutant of BIR1 (1-105) of XIAP (from UniProt P98170 1-105) (domain or fragment) | 2 | 2 | –
B1 | – | – | 2
